Experimental data as given in patent US20060257938A1, “Method of screening for drugs that block ligand binding to a lipid binding protein” (priority 2005, published 2006).

B1: L2P22H10: FABP probe, substitutions M18I F55G A73M vs SEQ ID NO: 2 (protein, listed as Rattus norvegicus)
chain: AFDGTWKVDRNENYEKFIEKMGINVVKRKLGAHDNLKLTITQEGNKFTVKESSNGRNIDVVFELGVDFAYSLMDGTELTGTWTMEGNKLVGKFKRVDNGKELIAVREISGNELIQTYTYEGVEAKRIFKKE
modifications: PEPTIDE (1)...(131) wild-type rat intestinal fatty acid binding protein
B2: L2P23A4: FABP probe, substitutions M18V G31I F55L A73V vs SEQ ID NO: 2 (protein, listed as Rattus norvegicus)
chain: AFDGTWKVDRNENYEKFVEKMGINVVKRKLIAHDNLKLTITQEGNKFTVKESSNLRNIDVVFELGVDFAYSLVDGTELTGTWTMEGNKLVGKFKRVDNGKELIAVREISGNELIQTYTYEGVEAKRIFKKE
modifications: PEPTIDE (1)...(131) wild-type rat intestinal fatty acid binding protein
B3: L2P8B8: FABP probe, substitution A73F vs SEQ ID NO: 2 (protein, listed as Rattus norvegicus)
chain: AFDGTWKVDRNENYEKFMEKMGINVVKRKLGAHDNLKLTITQEGNKFTVKESSNFRNIDVVFELGVDFAYSLFDGTELTGTWTMEGNKLVGKFKRVDNGKELIAVREISGNELIQTYTYEGVEAKRIFKKE
modifications: PEPTIDE (1)...(131) wild-type rat intestinal fatty acid binding protein
B4: L2P18H12: FABP probe, substitutions M18I G31V A73G vs SEQ ID NO: 2 (protein, listed as Rattus norvegicus)
chain: AFDGTWKVDRNENYEKFIEKMGINVVKRKLVAHDNLKLTITQEGNKFTVKESSNFRNIDVVFELGVDFAYSLGDGTELTGTWTMEGNKLVGKFKRVDNGKELIAVREISGNELIQTYTYEGVEAKRIFKKE
modifications: PEPTIDE (1)...(131) wild-type rat intestinal fatty acid binding protein
B5: L2P12C5: FABP probe, substitutions M18I G31I F55M A73I vs SEQ ID NO: 2 (protein, listed as Rattus norvegicus)
chain: AFDGTWKVDRNENYEKFIEKMGINVVKRKLIAHDNLKLTITQEGNKFTVKESSNMRNIDVVFELGVDFAYSLIDGTELTGTWTMEGNKLVGKFKRVDNGKELIAVREISGNELIQTYTYEGVEAKRIFKKE
modifications: PEPTIDE (1)...(131) wild-type rat intestinal fatty acid binding protein
B6: L2P21G3: FABP probe, substitutions M18I G31M F55M vs SEQ ID NO: 2 (protein, listed as Rattus norvegicus)
chain: AFDGTWKVDRNENYEKFIEKMGINVVKRKLMAHDNLKLTITQEGNKFTVKESSNMRNIDVVFELGVDFAYSLADGTELTGTWTMEGNKLVGKFKRVDNGKELIAVREISGNELIQTYTYEGVEAKRIFKKE
modifications: PEPTIDE (1)...(131) wild-type rat intestinal fatty acid binding protein
B7: L2P8A5: FABP probe, substitutions M18V G31A F55W A73W vs SEQ ID NO: 2 (protein, listed as Rattus norvegicus)
chain: AFDGTWKVDRNENYEKFVEKMGINVVKRKLAAHDNLKLTITQEGNKFTVKESSNWRNIDVVFELGVDFAYSLWDGTELTGTWTMEGNKLVGKFKRVDNGKELIAVREISGNELIQTYTYEGVEAKRIFKKE
modifications: PEPTIDE (1)...(131) wild-type rat intestinal fatty acid binding protein
B8: L2P21C1: FABP probe, substitutions M18I G31Y A73V vs SEQ ID NO: 2 (protein, listed as Rattus norvegicus)
chain: AFDGTWKVDRNENYEKFIEKMGINVVKRKLYAHDNLKLTITQEGNKFTVKESSNFRNIDVVFELGVDFAYSLVDGTELTGTWTMEGNKLVGKFKRVDNGKELIAVREISGNELIQTYTYEGVEAKRIFKKE
modifications: PEPTIDE (1)...(131) wild-type rat intestinal fatty acid binding protein
B9: L2P7F4: FABP probe, substitutions M18V G31V A73I vs SEQ ID NO: 2 (protein, listed as Rattus norvegicus)
chain: AFDGTWKVDRNENYEKFVEKMGINVVKRKLVAHDNLKLTITQEGNKFTVKESSNFRNIDVVFELGVDFAYSLIDGTELTGTWTMEGNKLVGKFKRVDNGKELIAVREISGNELIQTYTYEGVEAKRIFKKE
modifications: PEPTIDE (1)...(131) wild-type rat intestinal fatty acid binding protein
B10: L2P22E6: FABP probe, substitutions M18V G31A F55I A73W vs SEQ ID NO: 2 (protein, listed as Rattus norvegicus)
chain: AFDGTWKVDRNENYEKFVEKMGINVVKRKLAAHDNLKLTITQEGNKFTVKESSNIRNIDVVFELGVDFAYSLWDGTELTGTWTMEGNKLVGKFKRVDNGKELIAVREISGNELIQTYTYEGVEAKRIFKKE
modifications: PEPTIDE (1)...(131) wild-type rat intestinal fatty acid binding protein
B11: L2P23G7: FABP probe, substitutions M18V G31F F55L vs SEQ ID NO: 2 (protein, listed as Rattus norvegicus)
chain: AFDGTWKVDRNENYEKFVEKMGINVVKRKLFAHDNLKLTITQEGNKFTVKESSNLRNIDVVFELGVDFAYSLADGTELTGTWTMEGNKLVGKFKRVDNGKELIAVREISGNELIQTYTYEGVEAKRIFKKE
modifications: PEPTIDE (1)...(131) wild-type rat intestinal fatty acid binding protein
B12: L2P16A3: FABP probe, substitutions M18I G31L A73G vs SEQ ID NO: 2 (protein, listed as Rattus norvegicus)
chain: AFDGTWKVDRNENYEKFIEKMGINVVKRKLLAHDNLKLTITQEGNKFTVKESSNFRNIDVVFELGVDFAYSLGDGTELTGTWTMEGNKLVGKFKRVDNGKELIAVREISGNELIQTYTYEGVEAKRIFKKE
modifications: PEPTIDE (1)...(131) wild-type rat intestinal fatty acid binding protein

Columns and labels:
Type in all cases: binding
[1] = Probe fluorescence ratio response to arachidonic acid relative to ADIFAB2; conditions: Table 5; Arachidonic acid
Procedure, shortened: (§1)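 Each fatty acid's response was expressed relative to ADIFAB2, the rI-FABP-L72A probe, as ΔR/ΔRreference. ΔR is the change in the background-corrected two-wavelength intensity ratio R=Fλ1/Fλ2 from its analyte-free baseline R0. Emission was read near about 420-480 nm for unbound and about 495-580 nm for FFA-bound probe.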

[2] = Probe fluorescence ratio response to linolenic acid relative to ADIFAB2; conditions: Table 5
Procedure, shortened: as §1

[3] = Probe fluorescence ratio response to linoleic acid relative to ADIFAB2; conditions: Table 5
Procedure, shortened: as §1

[4] = Probe fluorescence ratio response to oleic acid relative to ADIFAB2; conditions: Table 5
Procedure, shortened: as §1

[5] = Probe fluorescence ratio response to palmitic acid relative to ADIFAB2; conditions: Table 5
Procedure, shortened: as §1

[6] = Probe fluorescence ratio response to palmitoleic acid relative to ADIFAB2; conditions: Table 5
Procedure, shortened: as §1

[7] = Probe fluorescence ratio response to stearic acid relative to ADIFAB2; conditions: Table 5
Procedure, shortened: as §1

Molecule | ΔR/DRAΔ2 AA [1] | ΔR/DRAΔ2 LNA [2] | ΔR/DRAΔ2 LA [3] | ΔR/DRAΔ2 OA [4] | ΔR/DRAΔ2 PA [5] | ΔR/DRAΔ2 POA [6] | ΔR/DRAΔ2 SA [7]
B1 | 0.9 | 1.3 | 1.1 | 0.6 | 1.1 | 1.2 | 0.4
B2 | 2.8 | 2.6 | 3.1 | 2.3 | 1.9 | 2.8 | 1.2
B3 | 1.1 | 1.8 | 1.2 | 0.6 | 1.1 | 2.4 | 0.4
B4 | 1.3 | 1.9 | 1.7 | 1.0 | 1.6 | 2.1 | 0.5
B5 | 1.3 | 1.7 | 1.5 | 0.8 | 1.5 | 1.9 | 0.4
B6 | 1.0 | 1.4 | 1.1 | 0.6 | 1.1 | 1.4 | 0.3
B7 | 1.1 | 1.9 | 1.6 | 0.9 | 1.5 | 2.0 | 0.4
B8 | 2.8 | 3.1 | 3.4 | 2.7 | 2.0 | 2.9 | 1.6
B9 | 0.8 | 1.5 | 1.1 | 0.6 | 1.3 | 1.3 | 0.3
B10 | 1.0 | 1.6 | 1.3 | 0.8 | 1.3 | 1.6 | 0.4
B11 | 0.9 | 1.2 | 1.0 | 0.6 | 1.0 | 1.4 | 0.4
B12 | 1.0 | 1.5 | 1.1 | 0.6 | 1.1 | 1.4 | 0.3
